For series [1], the system named is SH-SY5Y cells. Description: Cell toxicity assay (MTS) of single peptides on human neuroblastoma cell line. Type of series: cell-based. Particulars: 24 h, FIG. 7 / FIG. 8.
For series [2], the target named is T1, Aβ 29-42 (Homo sapiens, UniProt P05067). Type of series: biochemical. The note with it: for % of fusion after 15 minutes: 1/1 peptide ratio, room temperature, average of plateau (10-15 minutes) of three experiments, Aβ alone = 100%.
For series [3], the target named is T1, Aβ 29-42. Type of series: biochemical. Details: made in house; host or cells: chemical peptide synthesis (no expression host). The note with it: for HPTS fluorescence signal when added to Aβ 29-42 (inhibition of membrane destabilization): independently of the mutant/Aβ 29-42 molar ratio, Aβ peptide/lipid molar ratio 0.4, FIGS. 4a and b. The text has this: (§1) In this leakage assay, performed according to the procedure described in Ellens et al. (Ellens, H., Bentz, J., and Szoka, F. C. (1985) Biochemistry 24, 3099-3106), a substance encapsulated in the liposomes is followed by fluorescence measurement. HPTS ([…]) and his quencher DPX (p-xylylenebis[pyridinium]bromide) were both encapsulated in the aqueous phase of the same liposomes. Liposomes were eluted on a Sephadex G75 column to remove the excess of HPTS and DPX.
(§2) Fluorescence was measured at room temperature using excitation and emission wavelengths of 450 nm and 512 nm, respectively. Leakage induced by the Aβ peptide was followed by measuring the dequenching of HPTS released into the medium. The percentage of release induced by the peptide was defined as Ft/Ftot×100, where Ft is the fluorescence signal measured at time t and Ftot is the signal obtained after lysing the vesicles with 0.5% Triton X100.

In series [4] the test system is SH-SY5Y cells. Description: Cell toxicity assay (MTS) in presence of both the Aβ 1-42 and ApoE 270-287 peptides. Type of series: cell-based, human. The note with it: 2 μM ApoE 270-287 + 100 μM Aβ 1-42 (ratio 1/50), 24 h, FIG. 9.
Series [5] deals with Aβ 29-42. Type of series: biochemical. Particulars: without Aβ 29-42; data not shown.
Excerpt: as §1, §2

For series [6], the target named is T2, β-Amyloid peptidic fragment 29-42 (Aβ 29-42) (C-terminal and N-terminal blocked (N-amidated and C-acetylated) (so in the source)). The series is described as follows: cell-based or functional assay.
For series [7], the target named is T2, β-Amyloid peptidic fragment 29-42 (Aβ …). The series is described as follows: cell-based or functional assay. The source holds these as a separate data set.

Where no end group is shown, it is not given here.

Data on 8 molecules can be found in patent US20080193947A1, “Complementary Peptides For Beta-Amyloid 29-42 Peptide” (priority 2004, published 2008).

Take Aβ 1-40: β-Amyloid 1-40 peptide: the “cell toxicity (viability against increasing peptide concentrations)” value in the series on SH-SY5Y cells [1] is listed as “does not induce any”.
As for “GAIIGLMVGGVVIA (listed as Homo sapiens) [Aβ 29-42, C-terminal part of the β-Amyloid protein, tilted fusion peptide]”, the “% of fusion after 15 minutes” value with Aβ 29-42 [2] is 100%. For the same molecule, in the series with Aβ 29-42 [3] (1/1 peptide ratio, room temperature, average of plateau (10-15 minutes) of three experiments), the “% of leakage after 15 minutes” value is on record as 28%.
For Ac-EDMQRQWAGLVEKVQAAV-NH2 [ApoE WT], the “% of fusion after 15 minutes” value at Aβ 29-42 [2] is 89%. Moreover, the “fluorescence signal (lipid fusion), Aβ 29-42 alone taken as 100% fusion reference” value at Aβ 29-42 [2] (FIG. 3, added to Aβ 29-42 at molar ratio of 1, Aβ peptide/lipid ratio 0,4 (mol/mol)) is recorded as “about 91%”. For the same molecule, the “cell viability in presence of Aβ 1-42 and the complementary peptide” value with SH-SY5Y cells [4] stood at 80%. Also, the “cell toxicity (viability against increasing peptide concentrations)” value in the series on SH-SY5Y cells [1] is recorded as “induces cell toxicity only at 100 μM”.
As for “EDMQRQLAGVVEKVQAAV (also: N- and C-terminal blocking) [ApoE mutant 11, peptide derived from ApoE WT]”, the “destabilization effects of the peptide alone on the membranes” value in the series with Aβ 29-42 [5] is reported as “no destabilization effects on the membranes”. Besides, the “HPTS fluorescence signal when added to Aβ 29-42 (inhibition of membrane destabilization)” value with Aβ 29-42 [3] is recorded as “much weaker”.
As for “EDMQRQMAGLMEKMQAAV (also: N- and C-terminal blocking) [ApoE mutant 413, peptide derived from ApoE WT]”, the “destabilization effects of the peptide alone on the membranes” value in the series with Aβ 29-42 [5] is recorded as “no destabilization effects on the membranes”. Further, the “HPTS fluorescence signal when added to Aβ 29-42 (inhibition of membrane destabilization)” value in the series with Aβ 29-42 [3] is listed as “much weaker”.
As for Ac-EDMQRQLAGVVEKVQAAV-NH2 [ApoE mutant 11], in series [6], the “% of fusion after 15 minutes (R18 lipid fusion of SUV induced by Aβ 29-42, 1/1 peptide ratio)” value was 17% and the “% of leakage after 15 minutes (HPTS/DPX liposome leakage induced by Aβ 29-42, 1/1 peptide ratio)” value was 0%. For the same molecule, the “R18 fluorescence signal of lipid fusion against Aβ 29-42 alone as 100% (FIG. 3, molar ratio of 1)” value in series [7] is 23%.
As for EDMQRQWAGLVEKVQAAV (not fully specified (N-terminus, C-terminus)) [wild type Apolipoprotein E3 peptide 270-287 (ApoE WT)], the “% of fusion after 15 minutes (R18 lipid fusion of SUV induced by Aβ 29-42, 1/1 peptide ratio)” value in series [6] worked out at 89%. Also, the “R18 fluorescence signal of lipid fusion against Aβ 29-42 alone as 100% (FIG. 3, molar ratio of 1)” value in series [7] is roughly 91%.
For Ac-EDMQRQMAGLMEKMQAAV-NH2 [ApoE mutant 413], in series [6], the “% of fusion after 15 minutes (R18 lipid fusion of SUV induced by Aβ 29-42, 1/1 peptide ratio)” value was determined as 21% and the “% of leakage after 15 minutes (HPTS/DPX liposome leakage induced by Aβ 29-42, 1/1 peptide ratio)” value came to 4%. Moreover, the “R18 fluorescence signal of lipid fusion against Aβ 29-42 alone as 100% (FIG. 3, molar ratio of 1)” value in series [7] came to 25%.
